T1: freshly dissolved FP13 K157G
T1 chain: KRLEVDIDIGIRS

T2: non-amyloid fragment FP10 of human fibrin α-chain (148-157)
T2 chain: KRLEVDIDIK

T3: human fibrin α-chain (148-160) amyloid fragment with Lys157Gly mutation (FP13), aggregated
T3 chain: KRLEVDIDIGIRS

T4: recombinant human β2-glycoprotein I, P02749
T4 chain: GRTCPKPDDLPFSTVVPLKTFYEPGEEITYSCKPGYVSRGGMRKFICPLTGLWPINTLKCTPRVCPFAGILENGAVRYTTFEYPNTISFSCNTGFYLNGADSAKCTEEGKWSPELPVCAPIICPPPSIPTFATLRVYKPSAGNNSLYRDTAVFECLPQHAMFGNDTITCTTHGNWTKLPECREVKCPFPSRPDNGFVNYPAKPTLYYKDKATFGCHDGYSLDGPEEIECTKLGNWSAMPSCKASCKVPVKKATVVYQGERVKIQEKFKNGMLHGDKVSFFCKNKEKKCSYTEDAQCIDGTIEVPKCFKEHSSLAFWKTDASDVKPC

T5: β2-glycoprotein I purified from fresh human plasma, P02749
T5 chain: T4 chain

B1: factor XII purified from human plasma (protein)
chain: IPPWEAPKEHKYKAEEHTVVLTVTGEPCHFPFQYHRQLYHKCTHKGRPGPQPWCATTPNFDQDQRWGYCLEPKKVKDHCSKHSPCQKGGTCVNMPSGPHCLCPQHLTGNHCQKEKCFEPQLLRFFHKNEIWYRTEQAAVARCQCKGPDAHCQRLASQACRTNPCLHGGRCLEVEGHRLCHCPVGYTGAFCDVDTKASCYDGRGLSYRGLARTTLSGAPCQPWASEATYRNVTAEQARNWGLGGHAFCRNPDNDIRPWCFVLNRDRLSWEYCDLAQCQTPTQAAPPTPVSPRLHVPLMPAQPAPPKPQPTTRTPPQSQTPGALPAKREQPPSLTRNGPLSCGQRLRKSLSSMTRVVGGLVALRGAHPYIAALYWGHSFCAGSLIAPCWVLTAAHCLQDRPAPEDLTVVLGQERRNHSCEPCQTLAVRSYRLHEAFSPVSYQHDLALLRLQEDADGSCALLSPYVQPVCLPSGAARPSETTLCQVAGWGHQFEGAEEYASFLQEAQVPFLSLERCSAPDVHGSSILPGMLCAGFLEGGTDACQGDSGGPLVCEDQAAERRLTLQGIISWGSGCGDRNKPGVYTDVAYYLAWIREHTVS
B2: tissue-type plasminogen activator (tPA) (protein)
chain: SYQVICRDEKTQMIYQQHQSWLRPVLRSNRVEYCWCNSGRAQCHSVPVKSCSEPRCFNGGTCQQALYFSDFVCQCPEGFAGKCCEIDTRATCYEDQGISYRGTWSTAESGAECTNWNSSALAQKPYSGRRPDAIRLGLGNHNYCRNPDRDSKPWCYVFKAGKYSSEFCSTPACSEGNSDCYFGNGSAYRGTHSLTESGASCLPWNSMILIGKVYTAQNPSAQALGLGKHNYCRNPDGDAKPWCHVLKNRRLTWEYCDVPSCSTCGLRQYSQPQFRIKGGLFADIASHPWQAAIFAKHRRSPGERFLCGGILISSCWILSAAHCFQERFPPHHLTVILGRTYRVVPGEEEQKFEVEKYIVHKEFDDDTYDNDIALLQLKSDSSRCAQESSVVRTVCLPPADLQLPDWTECELSGYGKHEALSPFYSERLKEAHVRLYPSSRCTSQHLLNRTVTDNMLCAGDTRSGGPQANLHDACQGDSGGPLVCLNDGRMTLVGIISWGLGCGQKDVPGVYTKVTNYLDWIRDNMRP

Legend:
[1] = target: T1, freshly dissolved FP13 K157G
[2] = target: LAM12
[3] = target: TTR11
[4] = target: T2, non-amyloid fragment FP10 of human …
[5] = target: human amyloid-β (Aβ) (1-40) Dutch type
[6] = target: glycated human haemoglobin (Hb-AGE), P69905
[7] = target: T3, human fibrin α-chain (148-160) amyloid …
[8] = target: mIAPP
[9] = target: native haemoglobin (Hb), P69905
[10] = target: T4, recombinant human β2-glycoprotein I, …
[11] = target: T5, β2-glycoprotein I purified from fresh …

Chain of native haemoglobin (Hb), P69905 (P69905 2-142, chain 1 of 2): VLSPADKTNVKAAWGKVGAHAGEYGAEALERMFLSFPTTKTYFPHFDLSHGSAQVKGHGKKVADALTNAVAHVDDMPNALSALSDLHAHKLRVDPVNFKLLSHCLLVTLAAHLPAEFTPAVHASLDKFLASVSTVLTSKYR
Chain of native haemoglobin (Hb), P69905 (chain, as listed by the source, chain 2 of 2): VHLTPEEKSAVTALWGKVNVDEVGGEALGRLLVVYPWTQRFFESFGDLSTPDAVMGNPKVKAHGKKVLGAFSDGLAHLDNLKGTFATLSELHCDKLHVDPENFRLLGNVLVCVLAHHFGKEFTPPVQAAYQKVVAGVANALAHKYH
Chain of glycated human haemoglobin (Hb-AGE), P69905 (P69905 2-142, chain 1 of 2): as the sequence (P69905 2-142, chain 1 of 2) above
Chain of glycated human haemoglobin (Hb-AGE), P69905 (chain, as listed by the source, chain 2 of 2): as the sequence (chain, as listed by the source, chain 2 of 2) above

Protein	factor XII auto-activation (substrate S-2222) [1]	activation of factor XII (conversion of Chromozym PK by kallikrein) [2]	activation of factor XII (conversion of Chromozym PK by kallikrein) [3]	activation of factor XII (conversion of Chromozym PK by kallikrein) [4]	activation of factor XII (conversion of Chromozym PK by kallikrein) [5]	factor XII auto-activation (substrate S-2222) [5]	factor XII auto-activation (substrate S-2222) [6]	activation of factor XII (conversion of Chromozym PK by kallikrein) [7]	factor XII auto-activation (substrate S-2222) [7]	activation of factor XII (conversion of Chromozym PK by kallikrein) [8]	factor XII auto-activation (substrate S-2222) [9]	tPA-mediated conversion of Plg to Pls (substrate S-2251) [10]	tPA-mediated conversion of Plg to Pls (substrate S-2251) [11]
B1	did not or hardly auto-activate factor XII (not shown)	LAM12 and TTR11 stimulate factor XII activation, to a similar extent as kaolin	LAM12 and TTR11 stimulate factor XII activation, to a similar extent as kaolin	non-amyloid controls FP10 and mIAPP do not activate factor XII	amyloid-like peptide aggregates of FP13 and Aβ stimulate the activation of factor XII	All three amyloid-like aggregates are able to induce factor XII auto-activation; the potency of the Aβ(1-40) E22Q was somewhat lower	All three amyloid-like aggregates are able to induce factor XII auto-activation	amyloid-like peptide aggregates of FP13 and Aβ stimulate the activation of factor XII	All three amyloid-like aggregates are able to induce factor XII auto-activation	non-amyloid controls FP10 and mIAPP do not activate factor XII	did not or hardly auto-activate factor XII (not shown)	–	–
B2	–	–	–	–	–	–	–	–	–	–	–	Recombinant β2GPI, but not β2GPI purified from fresh plasma stimulate tPA-mediated conversion of Plg to Pls	but not β2GPI purified from fresh plasma
